Assay [1] deals with RSV-F of RSV subtype A lab strains. Briefly: cell-based or functional assay.
Assay [2] concerns the target RSV-F of RSV subtype B lab strains. Nature of the assay: cell-based or functional assay.

“And” between values parts separate entries of the source, which are not always exact repeats. Equal values may be shown once.

B1: H1H3592P3 (antibody, V domains shown)
VH: EVQLVESGGDLVQPGRSLRLSCVASGFTFDDYAMHWVRQAPGKGLEWVSGVSWSGSTVGYADSVKGRFTVSRDNAQKSLYLQMNSLRAEDTALYYCVKDAYKFNYYYYGLDVWGQGTTVTVSS
VL: EIVMTQSPATLSVSPGERATLSCRASQTILSNLAWYLQKPGQAPRLLIYGASTRATGLPARFSGSGSGTEFTLTISSLQSEDFAVYYCQQYNNWPLTFGGGTKVEIK
Take B1: the neutralization potency on HEp-2 cells, fold against control I in assay [1] was 15 fold and 17 fold; in assay [2] it was 2 fold and 5 fold.

(Values after US20140271653A1.)
